Test results as given in patent US20260234247A1 (published 2026).
Values belong to the binder of their own block, whether it stands above or below them.

Columns and labels:
[1] = target: T1, human LILRB2 expressed on CHOK1 cells (human, UniProt Q8N423 22-597); assay: cell based RBA on CHOK1-hLILRB2 cells, flow cytometry; competitor HLA-G
T1 construct: whole, on cells; also called CHOK1-hLILRB2; CHOK1-LILRB2

[2] = target: T2, human LILRB1 expressed on CHOK1 cells (human, UniProt Q8NHL6 24-650); assay: cell based RBA on CHOK1-hLILRB1 cells, flow cytometry; competitor HLA-G
T2 construct: whole, on cells; also called CHOK1-hLILRB1; CHOK1-LILRB1

[3] = target: T1, human LILRB2 expressed on CHOK1 cells; assay: flow cytometry (FACS) binding to CHOK1-hLILRB2 cells
[4] = target: T2, human LILRB1 expressed on CHOK1 cells; assay: flow cytometry (FACS) binding to CHOK1-hLILRB1 cells
cynomolgus LILRB2 = cynomolgus LILRB2 (cynomolgus); assay: Octet off-rate ranking;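 note: antibody dissociation rate constants against cynomolgus LILRB2 plus human LILRB1, LILRB2, LILRA1 and LILRA2, measured on an Octet instrument to rank binding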
Excerpt: (§1) Binding affinity of anti-LILRB1 and anti-LILRB2 antibodies against human LILRB1, LILRB2, LILRA1, LILRA2 and cynomolgus LILRB2 was ranked by measuring dissociation rate constant (Kdis) using the Octet system.

human LILRB1 = target: T3, human LILRB1 (human, UniProt Q8NHL6 24-458, limits assumed); assay: Octet off-rate ranking;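 note: antibody dissociation rate constants against cynomolgus LILRB2 plus human LILRB1, LILRB2, LILRA1 and LILRA2, measured on an Octet instrument to rank binding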
T3 construct: also called hLILRB1
Excerpt: as §1

human LILRB2 = target: T4, human LILRB2 (human, UniProt Q8N423 22-460, limits assumed); assay: Octet off-rate ranking;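 note: antibody dissociation rate constants against cynomolgus LILRB2 plus human LILRB1, LILRB2, LILRA1 and LILRA2, measured on an Octet instrument to rank binding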
T4 construct: also called hLILRB2
Excerpt: as §1

human LILRB1-his = target: T5, human LILRB1-his (human, UniProt Q8NHL6 24-458, limits assumed); assay: SPR (Biacore 8K), antibody captured via Fc, LILRB1-his as analyte, 1:1 model
T5 construct: Analyte of the Biacore run; not shown: His tag

human LILRA2-his = target: T6, human LILRA2-his (human, UniProt Q8N149 24-449, limits assumed); assay: SPR (Biacore 8K), antibody captured via Fc, LILRA2-his as analyte, 1:1 model
T6 construct: Analyte of the Biacore run; not shown: His tag
T6 sequence (Q8N149 24-449 limits assumed): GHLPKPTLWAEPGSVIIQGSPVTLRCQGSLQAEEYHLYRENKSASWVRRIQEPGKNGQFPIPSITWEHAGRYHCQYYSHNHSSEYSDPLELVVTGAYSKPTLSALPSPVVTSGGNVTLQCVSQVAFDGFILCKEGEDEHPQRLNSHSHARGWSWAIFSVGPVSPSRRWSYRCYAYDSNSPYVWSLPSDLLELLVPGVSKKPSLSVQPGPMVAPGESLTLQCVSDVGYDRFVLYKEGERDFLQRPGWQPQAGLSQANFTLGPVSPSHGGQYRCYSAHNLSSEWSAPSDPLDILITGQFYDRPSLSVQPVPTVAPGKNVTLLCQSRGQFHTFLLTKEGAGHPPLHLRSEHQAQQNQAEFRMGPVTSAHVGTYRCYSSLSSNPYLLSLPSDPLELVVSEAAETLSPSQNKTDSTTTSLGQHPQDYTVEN

T2 sequence (Q8NHL6 24-650): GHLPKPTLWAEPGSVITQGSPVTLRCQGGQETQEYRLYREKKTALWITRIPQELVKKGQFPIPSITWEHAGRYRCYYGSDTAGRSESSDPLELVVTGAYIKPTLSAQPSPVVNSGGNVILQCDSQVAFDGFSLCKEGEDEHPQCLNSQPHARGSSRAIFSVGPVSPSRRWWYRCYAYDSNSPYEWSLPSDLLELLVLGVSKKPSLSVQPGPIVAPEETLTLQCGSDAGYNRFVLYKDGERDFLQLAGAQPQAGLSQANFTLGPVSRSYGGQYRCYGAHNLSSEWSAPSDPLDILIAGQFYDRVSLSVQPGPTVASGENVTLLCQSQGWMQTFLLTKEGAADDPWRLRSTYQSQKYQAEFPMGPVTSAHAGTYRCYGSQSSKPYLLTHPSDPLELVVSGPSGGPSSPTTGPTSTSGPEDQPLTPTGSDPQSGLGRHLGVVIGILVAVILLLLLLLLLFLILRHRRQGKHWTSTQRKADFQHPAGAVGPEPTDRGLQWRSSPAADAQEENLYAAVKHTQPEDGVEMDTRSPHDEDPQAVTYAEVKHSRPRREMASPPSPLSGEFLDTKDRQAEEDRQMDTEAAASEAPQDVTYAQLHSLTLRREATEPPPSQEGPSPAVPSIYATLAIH
T1 sequence (Q8N423 22-597): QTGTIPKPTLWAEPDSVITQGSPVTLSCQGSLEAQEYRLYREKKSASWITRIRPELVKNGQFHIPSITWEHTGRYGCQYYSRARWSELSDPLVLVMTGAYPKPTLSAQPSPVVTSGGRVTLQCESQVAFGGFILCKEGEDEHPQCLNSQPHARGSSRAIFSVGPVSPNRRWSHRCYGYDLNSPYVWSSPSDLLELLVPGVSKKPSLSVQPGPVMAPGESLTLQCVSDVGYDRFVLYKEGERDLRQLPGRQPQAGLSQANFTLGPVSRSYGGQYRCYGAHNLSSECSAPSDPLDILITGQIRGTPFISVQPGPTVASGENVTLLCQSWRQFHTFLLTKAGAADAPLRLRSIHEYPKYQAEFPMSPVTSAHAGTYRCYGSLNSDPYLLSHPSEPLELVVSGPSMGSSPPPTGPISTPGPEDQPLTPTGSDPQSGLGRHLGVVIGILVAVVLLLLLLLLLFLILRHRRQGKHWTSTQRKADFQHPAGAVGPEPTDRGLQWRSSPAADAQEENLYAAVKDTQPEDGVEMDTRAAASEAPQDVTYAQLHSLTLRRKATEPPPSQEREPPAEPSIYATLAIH
T5 sequence (Q8NHL6 24-458 limits assumed): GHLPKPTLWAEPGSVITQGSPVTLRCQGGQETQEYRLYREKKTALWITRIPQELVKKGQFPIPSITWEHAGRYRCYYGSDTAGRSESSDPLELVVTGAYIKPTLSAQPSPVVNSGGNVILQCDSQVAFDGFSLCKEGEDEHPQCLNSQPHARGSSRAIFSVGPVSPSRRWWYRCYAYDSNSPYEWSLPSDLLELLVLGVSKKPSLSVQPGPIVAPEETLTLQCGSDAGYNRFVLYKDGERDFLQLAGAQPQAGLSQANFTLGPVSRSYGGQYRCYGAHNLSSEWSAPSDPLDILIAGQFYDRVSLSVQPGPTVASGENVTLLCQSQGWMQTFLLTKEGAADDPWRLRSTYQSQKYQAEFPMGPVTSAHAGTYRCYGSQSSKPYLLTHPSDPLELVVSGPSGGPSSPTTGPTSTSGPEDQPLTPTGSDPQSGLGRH
T3 sequence (Q8NHL6 24-458 limits assumed): as above

B5: LK-RB2-32 (antibody, human IgG4 S228P, kappa, V domains shown)
VH: DVQLQESGPGLVKPSQSLSLTCSVTGYSITSGYYWNWIRQFPGNKLEWMGYISFDGSNHYNPSLRNRISITRDTFKNQFFLKLNSVTTEDTATFYCTRRDYNWFAYWGQGTLVTVSA
VL: DIVLTQSPVTLSVTPGDSVSLSCRASQNINKNLHWYQQRSHESPRLLIKYVSQSISGIPSRFSGSGSGTDFTLSINSVETEDFGMYFCQQSNSWPLTFGAGTKLELRR
koff (cynomolgus LILRB2): 0.00123 s⁻¹
koff (human LILRB1): 0.00186 s⁻¹
koff (human LILRB2): 0.00291 s⁻¹

B6: LK-RB1-9.h2 (antibody, human IgG4, kappa, V domains shown)
VH: QVQLVQSGSELKKPGASVKVSCTASGYTFTTYGMSWVRQAPGQGLKWMGWINTYSGVPTYADDFKGRFVFSLDTSVSTAYLQISSLKAEDTAVYFCARRRRTYHGYLSFDYWGQGTTVTVSS
VL: DIQMTQSPSSLSASVGDRVTITCETSENIYGALNWYQQKPGKAPKLLIYGATNLAEGVPSRFSGSGSGTDYTFTISSLQPEDIATYYCQNVLNTPWTFGGGTKLEIKR
notes: Humanized form of LK-RB1-9
Kd (human LILRB1-his): 0.927 nM
koff (human LILRB1-his): 0.000224 s⁻¹
kon (human LILRB1-his): 241000 M⁻¹ s⁻¹
Kd (human LILRA2-his): 6.97 nM
koff (human LILRA2-his): 0.00132 s⁻¹
kon (human LILRA2-his): 189000 M⁻¹ s⁻¹

B7: LK-RB1-9.h3 (antibody, human IgG4, kappa, V domains shown)
VH: QVQLVQSGSELKKPGASVKVSCTASGYTFTTYGMSWVKQAPGQGLKWMGWINTYSGVPTYADDFKGRFVFSLDTSVSTAYLQISSLKAEDTAVYFCARRRRTYHGYLSFDYWGQGTTVTVSS
VL: DIQMTQSPSSLSASVGDRVTITCETSENIYGALNWYQQKPGKAPKLLIYGATNLAEGVPSRFSGSGSGTDYTFTISSLQPEDIATYYCQNVLNTPWTFGGGTKLEIKR
notes: Humanized form of LK-RB1-9
Kd (human LILRB1-his): 0.497 nM
koff (human LILRB1-his): 0.000115 s⁻¹
kon (human LILRB1-his): 232000 M⁻¹ s⁻¹
Kd (human LILRA2-his): 6.77 nM
koff (human LILRA2-his): 0.00126 s⁻¹
kon (human LILRA2-his): 186000 M⁻¹ s⁻¹

B8: LK-RB1-9.h1 (antibody, human IgG4, kappa, V domains shown)
VH: QVQLVQSGSELKKPGASVKVSCKASGYTFTTYGMSWVRQAPGQGLEWMGWINTYSGVPTYADDFKGRFVFSLDTSVSTAYLQISSLKAEDTAVYYCARRRRTYHGYLSFDYWGQGTTVTVSS
VL: DIQMTQSPSSLSASVGDRVTITCETSENIYGALNWYQQKPGKAPKLLIYGATNLAEGVPSRFSGSGSGTDFTFTISSLQPEDIATYYCQNVLNTPWTFGGGTKLEIKR
notes: Humanized form of LK-RB1-9
Kd (human LILRB1-his): 0.825 nM
koff (human LILRB1-his): 0.000209 s⁻¹
kon (human LILRB1-his): 253000 M⁻¹ s⁻¹
Kd (human LILRA2-his): 10.4 nM
koff (human LILRA2-his): 0.00219 s⁻¹
kon (human LILRA2-his): 210000 M⁻¹ s⁻¹

B9: LK-RB2-31 (antibody, human IgG4 S228P, kappa, V domains shown)
VH: QVQLQQPGAELVKPGASMKLSCKASGYTFTTYYMYWVKQRPGLGLEWIGGINPSNGGTTFNEKFKNKATLTVDKSSSTAYMQLRSLTSEDSAVYYCTRWRFFDVWGAGTTVTVSS
VL: SIVMTQTPEFLLVSAGDRVTITCKASQSVNNDVAWFQQKPGQSPKLLIYYASNRYTGVPDRFTGSGYGTDFTFTISTVQAEDLAIYFCQQDYSSPPTFGGATKLEIKR
koff (cynomolgus LILRB2): 0.000291 s⁻¹
koff (human LILRB1): 0.00167 s⁻¹

B11: LK-RB2-41 (antibody, human IgG4 S228P, kappa, V domains shown)
VH: EVQLQLSGPELVKPGASVKMSCKASGYTFTDYNMHWVKQSHGKSLEWIGYINPNNGGTTYNQKFKGKATLTVNKSSSTAYMELRSLTSEDSAVYYCARAPYYGSSYLLAYWGQGTLVTVSA
VL: DIVMTQSHKFMSTSVGDRVSITCKASQDVSTAVAWYQQKPGQSPKLLIYSASYRYTGVPDRFTGSGSGTDFTFTISSVQAEDLAIYYCQQHYSIPWTFGGGTKLEIKR
koff (cynomolgus LILRB2): 0.00119 s⁻¹
koff (human LILRB2): 6.33e-06 s⁻¹

B12: 15G8 (antibody, human IgG4 S228P, kappa, V domains shown)
VH: DVQLQGSGPGLVKPSETLSLTCSVTGYSITSGYYWNWIRQFPGKKLEWMGYISYDGSNNYNPSLKNRITISRDTSKNQFSLKLNSVTAADTATYYCAHGYSYYYAMDAWGQGTSVTVSS
VL: DIQMTQSPSSLSASVGDRVTITCRTSQDISNYLNWYQQKPGKAVKLLISYTSRLHSGVPSRFSGSGSGTDYTLTISSLQPEDFATYYCQQGNTLPTFGQGTKLEIKR
EC50 [2]: 2.05 µg/mL
binding result [3]: no binding
EC50 [4]: 1.17 nM

B15: J19.h1 (antibody, human IgG4 S228P, kappa, V domains shown)
VH: QITLKESGPTLVKPTQTLTLTCTFSGFSLNTYAMGVSWIRQPPGKALEWLASIWWNGNKYNNPSLKSRLTVTKDTSKNQVVLTMTNMDPVDTATYYCAHSRIIRFTDYVMDAWGQGTLVTVSS
VL: DIQMTQSPSSLSTSVGDRVTITCRASEDIYNDLAWYQQKPGKAPKLLIYNANSLHTGVASRFSGSGSGTDFTFTISSLQPEDVATYFCQQYYDYPLTFGQGTKLEIKR
EC50 [1]: 0.46 µg/mL
EC50 [3]: 0.27 nM
binding result [4]: no binding

B16: LK-RB1-9 (antibody, human IgG4 S228P, kappa, V domains shown)
VH: QIQLVQSGPELKKPGETVKISCTASGYTFTTYGMSWVKQAPGKGLKWMGWINTYSGVPTYADDFKGRFAFSLETSASTAYLEINNVKNEDTATYFCARRRRTYHGYLCFDYWGQGTTLTVSS
VL: DIQMTQSPVSLSASVGETVTITCETSENIYGALNWYQRKQGKSPQLLIYGATNLADGMSSRFSGSGSGRQYSLEISSLHPDDVASYYCQNVLNTPWTFGGGTKLEIKR
notes: Anti-LILRB1 antibody from mouse hybridoma; parental antibody of LK-RB1-9.h1 to h3
Kd (human LILRB1-his): 0.836 nM
koff (human LILRB1-his): 0.000255 s⁻¹
kon (human LILRB1-his): 305000 M⁻¹ s⁻¹
Kd (human LILRA2-his): 13.3 nM
koff (human LILRA2-his): 0.00286 s⁻¹
kon (human LILRA2-his): 215000 M⁻¹ s⁻¹

More lines, now with the values ahead:

EC50 [1]: 0.5 µg/mL
EC50 [2]: 0.91 µg/mL
EC50 [3]: 1.06 nM
EC50 [4]: 2.21 nM
B1: LK-RBi-10 (bispecific antibody, human IgG4 S228P, kappa)
heavy: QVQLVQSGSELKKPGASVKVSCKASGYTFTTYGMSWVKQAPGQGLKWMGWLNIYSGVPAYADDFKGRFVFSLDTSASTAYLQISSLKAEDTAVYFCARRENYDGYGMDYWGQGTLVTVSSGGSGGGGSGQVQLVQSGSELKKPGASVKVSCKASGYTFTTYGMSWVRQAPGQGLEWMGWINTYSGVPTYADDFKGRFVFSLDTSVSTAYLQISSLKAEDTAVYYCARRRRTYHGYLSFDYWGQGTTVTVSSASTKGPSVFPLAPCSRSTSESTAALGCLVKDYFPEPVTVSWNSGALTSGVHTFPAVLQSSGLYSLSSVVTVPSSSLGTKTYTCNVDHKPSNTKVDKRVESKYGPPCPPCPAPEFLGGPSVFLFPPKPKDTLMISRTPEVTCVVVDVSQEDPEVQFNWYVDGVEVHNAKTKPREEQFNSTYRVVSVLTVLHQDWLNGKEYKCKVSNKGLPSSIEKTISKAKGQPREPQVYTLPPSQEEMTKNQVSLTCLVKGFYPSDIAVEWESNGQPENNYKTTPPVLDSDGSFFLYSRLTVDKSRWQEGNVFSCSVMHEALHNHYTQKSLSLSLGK
light: EIVLTQSPATLSLSPGERATLSCRASQSISDYLHWYQQKPGQAPRLLIKYASQSISGIPSRFSGSGSGTDFTLTISSLEPEDVAVYYCQNGHSFPYTFGGGTKLEIKGGSGGGGSGDIQMTQSPSSLSASVGDRVTITCETSENIYGALNWYQQKPGKAPKLLIYGATNLAEGVPSRFSGSGSGTDFTFTISSLQPEDIATYYCQNVLNTPWTFGGGTKLEIKRTVAAPSVFIFPPSDEQLKSGTASVVCLLNNFYPREAKVQWKVDNALQSGNSQESVTEQDSKDSTYSLSSTLTLSKADYEKHKVYACEVTHQGLSSPVTKSFNRGEC

EC50 [1]: 0.43 µg/mL
EC50 [2]: 1.03 µg/mL
EC50 [3]: 1.29 nM
EC50 [4]: 1.17 nM
B2: LK-RBi-09 (bispecific antibody, human IgG4 S228P, kappa)
heavy: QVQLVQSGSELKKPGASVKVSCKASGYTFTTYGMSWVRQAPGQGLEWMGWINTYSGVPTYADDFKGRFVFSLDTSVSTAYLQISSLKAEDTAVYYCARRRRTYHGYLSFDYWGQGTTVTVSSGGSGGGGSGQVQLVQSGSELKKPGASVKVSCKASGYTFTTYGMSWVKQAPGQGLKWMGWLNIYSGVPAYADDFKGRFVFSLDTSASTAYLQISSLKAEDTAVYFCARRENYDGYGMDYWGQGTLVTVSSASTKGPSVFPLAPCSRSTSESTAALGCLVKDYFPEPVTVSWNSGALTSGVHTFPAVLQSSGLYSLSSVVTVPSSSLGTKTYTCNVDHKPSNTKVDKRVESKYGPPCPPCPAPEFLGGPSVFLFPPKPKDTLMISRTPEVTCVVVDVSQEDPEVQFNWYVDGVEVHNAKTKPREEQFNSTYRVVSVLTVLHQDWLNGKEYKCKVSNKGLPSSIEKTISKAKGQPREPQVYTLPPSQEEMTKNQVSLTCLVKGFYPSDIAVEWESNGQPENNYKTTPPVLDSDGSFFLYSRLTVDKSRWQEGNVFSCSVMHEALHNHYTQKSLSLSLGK
light: DIQMTQSPSSLSASVGDRVTITCETSENIYGALNWYQQKPGKAPKLLIYGATNLAEGVPSRFSGSGSGTDFTFTISSLQPEDIATYYCQNVLNTPWTFGGGTKLEIKGGSGGGGSGEIVLTQSPATLSLSPGERATLSCRASQSISDYLHWYQQKPGQAPRLLIKYASQSISGIPSRFSGSGSGTDFTLTISSLEPEDVAVYYCQNGHSFPYTFGGGTKLEIKRTVAAPSVFIFPPSDEQLKSGTASVVCLLNNFYPREAKVQWKVDNALQSGNSQESVTEQDSKDSTYSLSSTLTLSKADYEKHKVYACEVTHQGLSSPVTKSFNRGEC

EC50 [1]: 0.38 µg/mL
EC50 [2]: 1.4 µg/mL
EC50 [3]: 0.8 nM
EC50 [4]: 7.15 nM
B3: LK-RBi-01 (bispecific antibody, human IgG4 S228P, kappa)
heavy: not shown
light: DIQMTQSPSSLSASVGDRVTITCETSENIYGALNWYQQKPGKAPKLLIYGATNLAEGVPSRFSGSGSGTDFTFTISSLQPEDIATYYCQNVLNTPWTFGGGTKLEIKRTVAAPSVFIFPPSDEQLKSGTASVVCLLNNFYPREAKVQWKVDNALQSGNSQESVTEQDSKDSTYSLSSTLTLSKADYEKHKVYACEVTHQGLSSPVTKSFNRGEC

EC50 [1]: 0.19 µg/mL
EC50 [2]: 2.12 µg/mL
EC50 [3]: 1.25 nM
EC50 [4]: 1.27 nM
B4: LK-RBi-02 (bispecific antibody, human IgG4 S228P, kappa)
heavy: not shown
light: DIQMTQSPSSLSASVGDRVTITCETSENIYGALNWYQQKPGKAPKLLIYGATNLAEGVPSRFSGSGSGTDFTFTISSLQPEDIATYYCQNVLNTPWTFGGGTKLEIKRTVAAPSVFIFPPSDEQLKSGTASVVCLLNNFYPREAKVQWKVDNALQSGNSQESVTEQDSKDSTYSLSSTLTLSKADYEKHKVYACEVTHQGLSSPVTKSFNRGEC

EC50 [1]: 2.49 µg/mL
EC50 [2]: 4.37 µg/mL
EC50 [3]: 2.22 nM
EC50 [4]: 2.31 nM
B10: LK-RBi-11 (bispecific antibody, human IgG4 S228P, kappa)
heavy: not shown
light: DIQMTQSPSTLSASVGDRVTITCHASQSVDFWLNWYQQKPGKAPKLLISKASNLHTGVPSRFSGSGSGTEFTLTISSLQPDDFATYYCQQGQSYPLTFGQGTKLEIKGGSGGGGSGDIQMTQSPSSVSASVGDRVTITCRASENIYSNLAWYQQKPGKAPKLLIYAATNLAEGVPSRFSGSGSGTDYTLTISSLQPEDFATYYCQQFWDNPLTFGQGTKLEIKRTVAAPSVFIFPPSDEQLKSGTASVVCLLNNFYPREAKVQWKVDNALQSGNSQESVTEQDSKDSTYSLSSTLTLSKADYEKHKVYACEVTHQGLSSPVTKSFNRGEC

EC50 [1]: 0.57 µg/mL
EC50 [2]: 1.31 µg/mL
EC50 [3]: 0.73 nM
EC50 [4]: 1.47 nM
B13: LK-RBi-06 (bispecific antibody, human IgG4 S228P, kappa)
heavy: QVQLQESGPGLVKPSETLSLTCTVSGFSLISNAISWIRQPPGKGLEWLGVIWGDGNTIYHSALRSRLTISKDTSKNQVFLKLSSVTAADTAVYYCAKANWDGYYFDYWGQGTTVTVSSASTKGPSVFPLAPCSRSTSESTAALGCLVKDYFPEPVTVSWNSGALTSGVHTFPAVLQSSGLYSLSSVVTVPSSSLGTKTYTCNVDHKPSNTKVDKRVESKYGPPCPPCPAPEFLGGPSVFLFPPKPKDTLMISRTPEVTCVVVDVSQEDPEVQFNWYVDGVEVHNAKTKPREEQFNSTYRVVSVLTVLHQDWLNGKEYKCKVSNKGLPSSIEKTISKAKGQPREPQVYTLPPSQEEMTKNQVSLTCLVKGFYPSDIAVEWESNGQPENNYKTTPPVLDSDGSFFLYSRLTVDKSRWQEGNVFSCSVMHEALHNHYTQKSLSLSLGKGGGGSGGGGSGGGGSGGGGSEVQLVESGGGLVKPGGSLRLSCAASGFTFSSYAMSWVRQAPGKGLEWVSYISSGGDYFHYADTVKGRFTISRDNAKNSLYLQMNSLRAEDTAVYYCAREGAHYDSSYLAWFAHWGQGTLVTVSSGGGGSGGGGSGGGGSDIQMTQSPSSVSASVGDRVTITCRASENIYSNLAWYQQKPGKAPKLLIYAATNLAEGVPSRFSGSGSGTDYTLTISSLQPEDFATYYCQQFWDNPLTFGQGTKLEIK
light: DIQMTQSPSTLSASVGDRVTITCHASQSVDFWLNWYQQKPGKAPKLLISKASNLHTGVPSRFSGSGSGTEFTLTISSLQPDDFATYYCQQGQSYPLTFGQGTKLEIKRTVAAPSVFIFPPSDEQLKSGTASVVCLLNNFYPREAKVQWKVDNALQSGNSQESVTEQDSKDSTYSLSSTLTLSKADYEKHKVYACEVTHQGLSSPVTKSFNRGEC

EC50 [1]: 0.97 µg/mL
EC50 [2]: 1.22 µg/mL
EC50 [3]: 1.58 nM
EC50 [4]: 2.51 nM
B14: LK-RBi-07 (bispecific antibody, human IgG4 S228P, kappa)
heavy: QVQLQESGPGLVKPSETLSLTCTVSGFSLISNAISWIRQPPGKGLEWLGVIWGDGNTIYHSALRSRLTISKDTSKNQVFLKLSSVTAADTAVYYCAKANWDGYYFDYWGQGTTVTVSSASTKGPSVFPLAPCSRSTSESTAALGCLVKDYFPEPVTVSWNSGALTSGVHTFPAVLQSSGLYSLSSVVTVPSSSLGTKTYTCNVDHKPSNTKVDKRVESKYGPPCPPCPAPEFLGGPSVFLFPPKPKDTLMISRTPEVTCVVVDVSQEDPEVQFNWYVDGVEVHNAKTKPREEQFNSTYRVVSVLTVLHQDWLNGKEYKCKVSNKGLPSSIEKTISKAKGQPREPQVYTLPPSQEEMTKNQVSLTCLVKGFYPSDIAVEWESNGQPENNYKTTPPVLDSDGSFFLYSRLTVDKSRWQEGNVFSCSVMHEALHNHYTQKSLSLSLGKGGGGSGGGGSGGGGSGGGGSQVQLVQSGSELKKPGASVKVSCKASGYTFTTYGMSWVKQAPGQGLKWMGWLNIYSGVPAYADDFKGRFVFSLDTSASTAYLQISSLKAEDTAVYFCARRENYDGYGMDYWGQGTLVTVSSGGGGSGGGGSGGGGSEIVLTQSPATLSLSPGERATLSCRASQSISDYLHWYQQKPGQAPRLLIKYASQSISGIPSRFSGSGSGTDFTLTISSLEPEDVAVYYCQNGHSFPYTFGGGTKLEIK
light: DIQMTQSPSTLSASVGDRVTITCHASQSVDFWLNWYQQKPGKAPKLLISKASNLHTGVPSRFSGSGSGTEFTLTISSLQPDDFATYYCQQGQSYPLTFGQGTKLEIKRTVAAPSVFIFPPSDEQLKSGTASVVCLLNNFYPREAKVQWKVDNALQSGNSQESVTEQDSKDSTYSLSSTLTLSKADYEKHKVYACEVTHQGLSSPVTKSFNRGEC
